Patent publication US20250250357A1 (NANJING ZAIMING PHARMACEUTICAL, published 2025)
Substitutions are numbered along the chain they refer to.

B1: S009-F7.65.13 (antibody, human IgG1, kappa, V domains shown)
VH: EVQLQQSGPELVKPGTSVKILCKASGDTFTAYNMDWVKQRHGQSLEWIGDINPNTDSTIYNQKFEGKAILTVDKSSSTAYMELRSLTSEDTAVYYCARRKLGRGYFDYWGQGTTLTVSS
VL: QIVLTQSPAIMSASPGEKVTMTCSVNLSVRYIYWYQQKPGSSPRLLIHDTSNLASGVPVRFSGSGSGTSYSLTISRMEAEDAATYYCQQWSSFPYTFGGGTKLEIKR
notes: human-murine chimeric antibody, human IgG1/kappa constant regions
B2: S009-F7.53.2 (antibody, human IgG1, kappa, V domains shown)
VH: EVQLQQSGPELVKPGASVKIPCKTSGYTFTDYNMDWVKQSHGKSLEWIGDINPNTDGAIYNQKFQNKATLTVDKSSSTAYMELRSLTSEDTAVYYCTRRKLGRKFFDYWGQGTTLTVSS
VL: QIVLTQSPAIMSASPGEQVTMTCSASSSVGYMNWYQQKPGSSPRLLIYDTSNLASGVPVHFSGSGSGTSYSLTISRMEAAFAATYYCQQWYVYPYTFGGGTKLEIKR
notes: as for B1
B3: S009-F7.69.8 (antibody, human IgG1, kappa, V domains shown)
VH: EVHLQQSGPELVKPGASVRIPCKASGYTFTDYNMDWVKQSHGKSLEWIGDINPDNGGTIYTQKFKGKATLTVDKSSSTAYMELRSLTSEDTAVYYCARRLHYYGSSGLDYWGQGTTLTVSS
VL: DIQMTQSPASLSAYVGETVTITCRASGNIHNYLAWYQQKQGKSPQLLVYNAKTLADGVPSRFSGSGSGTQYSLKINSLQPEDFGSYYCQHFWSTVWTFGGGTKLEIKR
notes: as for B1
B4: S009-F7.44.20 (antibody, human IgG1, kappa, V domains shown)
VH: EVQLQQSGPELVKPGASVKIPCKASGYTFTDYNMDWVKQSHGKSLEWIGDINPSTGGTIYNQKFNGKATLTEDKSASTVYMEFRSLTSDDTAVYYCARRRIGTGYFDVWGTGTTVTVSS
VL: QIVLTQSPALMSASPGEKVTLTCSASSSVISSYLSWYQQKPGSSPKLLIYRTSNLASGVPARFSGSGSGTSYSLTISSMEAEDAASYFCHQWSSFPYTFGGGTKLEIKR
notes: as for B1
B5: S009-F7.61.21 (antibody, human IgG1, kappa, V domains shown)
VH: DVQLQQSGPELVEPGASVRIPCKAAGHTFTDYNVDWVKQSHGQSLEWIGDVNPNTDGAIYNQKFEGKATLTVDTSSSTAYMELRSLTSEDTAVYFCARRRLGQGGFDSWGQGTTLTVSS
VL: B4 VL with I2V, L10I, S24G, V29L, S32K, S35Y, L48W, R51S, F95Y, L105V
notes: as for B1
B6: S009-F7.67.12 (antibody, human IgG1, kappa, V domains shown)
VH: QVQLQQPGTELVKPGASVRLSCRASGYSFSSYWMHWVKQRPGQGLEWLGNINPTTGDINYNEKFRNRATLAVDKSSTTAYLQLTSLTSEDSAVYFCVRHDGFLWGQGTTLTVSS
VL: DIQMTQSPASLSASVGETVTITCRASENIYSYLAWYQQKQGKSPQLLVYYAKTLAEGVSSRFSGSGSGTQFSLKINSLQPEDFGTYYCQHQFGTPRTFGGGTKLEIRR
notes: as for B1
B7: S009-F7.41.18 (antibody, human IgG1, kappa, V domains shown)
VH: QVQLQQPGTELVKPGASVKLSCKASDYTFTSYWMHWVKQRPGQGLEWIGSINPSNGDTYYNEKFKNKATLTVDKSSSTAYMQLSSLTSDDSAVYYCARGWYFDVWGTGTTVTVSS
VL: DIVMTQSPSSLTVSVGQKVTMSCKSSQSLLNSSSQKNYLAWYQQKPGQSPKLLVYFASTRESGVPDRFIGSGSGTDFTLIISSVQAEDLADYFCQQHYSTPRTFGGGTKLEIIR
notes: as for B1
B8: S009-F7.48.1 (antibody, human IgG1, kappa, V domains shown)
VH: QVQLQQPGTELVKPGASVKLSCKASGYTFTSYWMHWVKQRPGQGLEWIGNINPSNGGTNNNENFKSKATLTVDTSSSTAYMQLSSLTSEDSAVYYCVRNGYHGYWYFDVWGTGTTVTVSS
VL: DIVMTQSQKFMSTSVGDRVSVTCKASQNVGTNVAWYQQQPGQSPKALIYSASYRYSGVPDRFTGSVSGTDFTLTISNVQSEDLAEYFCQQYNSYPLTFGGGTKLEIKR
notes: as for B1
B9: S009-F7.66.12 (antibody, human IgG1, kappa, V domains shown)
VH: QIPLQQSGPELVKPGASVRISCKASDYAFSSSWMNWVKQRPEKGLEWIGRIFVESGNTHYNDKFNGKATLTADKSSRTAYIQLSSLTSEDSAVYFCTRENIFYHGHSSWFAYWGQGTLVTVSA
VL: DIVLTQSPASLVVSLGQRATISCRAGESVDDFGISYVHWYQQKPGQPPKLLIYRAANLESGIPARFSGSGSRTDFTLTINPVETDDVAIYYCQQNNKDPFTFGSGTKLEIKR
notes: as for B1
B10: S009-F8-9.16 (antibody, human IgG1, kappa, V domains shown)
VH: EVHLQQSGPVLVKPGASVKMSCKASGYTFTDYFMNWVKQSHGKSLEWIGVINPHNGYVNYNQKFQGRATLTVDKSSSTVYMELNSLTSEDSAVYHCARSAESAWFAYWGQRTLVTVSA
VL: DVLMTQTPLSLPVSLGDQVSISCRSSQSIVHVKGNTYLEWYLQKPGQSPELLIYKVSNRFSGVPDRFSGGGSGTDFTLKISRVEPEDLGVYYCFQGSHLPYTFGGGTKLEIKR
notes: as for B1
B11: F7.44.20-H1 (scFv, not shown: small tags and cut ends)
scFv: EVQLVQSGAEVKKPGASVKVSCKASGYTFTDYNMDWVRQAPGQGLEWMGDINPSTGGTIYNQKFNGRVTMTEDKSTSTVYMELSSLRSEDTAVYYCARRRIGTGYFDVWGQGTTVTVSSGGGGSGGGGSGGGGSEIVLTQSPDFQSVTPKEKVTITCSASSSVISSYLSWYQQKPDQSPKLLIYRTSNLASGVPSRFSGSGSGTDFTLTINSLEAEDAATYYCHQWSSFPYTFGGGTKVEIK
notes: also called S009-F7.44.20 humanized antibody VH1 + VL1
B12: F7.44.20-H2 (scFv, not shown: small tags and cut ends)
scFv: B11 scFv with F206Y
notes: also called S009-F7.44.20 humanized antibody VH1 + VL2
B13: F7.44.20-H14 (scFv, not shown: small tags and cut ends)
scFv: B11 scFv with N65S, T76A, F206Y
notes: also called S009-F7.44.20 humanized antibody VH2a + VL2
B14: F7.44.20-H6 (scFv, not shown: small tags and cut ends)
scFv: B11 scFv with N65Q, F206Y
notes: also called S009-F7.44.20 humanized antibody VH1a + VL2
B15: F7.44.20-H10 (scFv, not shown: small tags and cut ends)
scFv: B11 scFv with T76A, F206Y
notes: also called S009-F7.44.20 humanized antibody VH2 + VL2
B16: F7.44.20-H13 (scFv, not shown: small tags and cut ends)
scFv: B11 scFv with N65S, T76A
notes: also called S009-F7.44.20 humanized antibody VH2a + VL1

Target: T1, monkey MSLN full-length protein (NCBI: XP_028696439.1) expressed on HEK293T-monkey MSLN cells (monkey)
T1 construct: Whole encoded precursor
T1 chain: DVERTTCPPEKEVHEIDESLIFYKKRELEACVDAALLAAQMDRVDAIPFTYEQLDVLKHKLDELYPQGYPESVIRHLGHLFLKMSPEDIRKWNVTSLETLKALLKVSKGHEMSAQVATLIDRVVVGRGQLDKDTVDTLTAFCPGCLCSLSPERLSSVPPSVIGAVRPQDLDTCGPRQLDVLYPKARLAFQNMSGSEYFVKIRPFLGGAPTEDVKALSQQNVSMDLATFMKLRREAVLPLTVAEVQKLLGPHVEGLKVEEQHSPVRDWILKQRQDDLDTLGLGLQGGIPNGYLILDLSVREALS
Experiment: FACS on HEK293T-monkey MSLN cells;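 note: flow cytometry binding of chimeric antibodies to the cells, with a 2 h incubation on ice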

Binder	EC50 [pM]	Maximum mean fluorescence intensity	binding result
B1	870	50200	–
B2	1130	47400	–
B3	12500	9230	–
B4	40	45600	–
B5	750	39800	–
B6	360	59300	–
B7	540	64200	–
B8	2880	43200	–
B9	–	60	no binding

Target: T2, human MSLN-R3 protein expressed on HEK293T cells (HEK293T-hMSLN-R3) (human, UniProt Q13421 487-606)
T2 construct: C-terminal limit uncertain
Experiment: FACS on HEK293T-hMSLN-R3 cells

T2 sequence (Q13421 495-614): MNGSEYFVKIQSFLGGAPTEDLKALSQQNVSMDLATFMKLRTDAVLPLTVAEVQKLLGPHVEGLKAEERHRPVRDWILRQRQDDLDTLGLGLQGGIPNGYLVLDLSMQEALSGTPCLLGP

Binder	EC50 [pM]	Maximum mean fluorescence intensity
B10	530	128000

Target: T3, human MSLN-R3 on HEK293T-hMSLN-R3 recombinant cells (human, UniProt Q13421 487-606)
T3 construct: the C-terminal limit is uncertain; also called human MSLN-R3 membrane protein
Experiment: FACS, HEK293T-hMSLN-R3 cells

T3 sequence (Q13421 495-614): as above

Binder	EC50 [pM]	Maximum_MFI [MFI]
B11	1720	1750
B12	1710	1690
B13	1520	1440
B14	3440	1540
B15	880	1470
B16	630	1600

Target: T4, human MSLN protein endogenously expressed on OVCAR3 tumor cells (human, UniProt Q13421 296-598)
T4 construct: whole, on cells; endogenous expression on a tumor cell line; also called human mesothelin
Experiment: FACS on OVCAR3 cells

Binder	EC50 [pM]	Maximum mean fluorescence intensity
B10	860	5380

Target: T5, monkey MSLN on HEK293T-monkey MSLN recombinant cells (monkey)
T5 construct: Full-length precursor as transfected; processing on the cell is not described; also called HEK293-monkey MSLN
T5 chain: T1 chain
Experiment: FACS, HEK293T-monkey MSLN cells

Binder	EC50 [pM]	Maximum_MFI [MFI]
B11	6050	6550
B12	5500	6950
B13	7370	8130
B14	15000	6020
B15	4250	9020
B16	2350	9320

Target: T6, human MSLN-R3 protein (Met487-Ser606 of NCBI AAH09272.1) expressed on HEK293T-hMSLN-R3 cells (human, UniProt Q13421 487-606)
T6 construct: also called Region3
Experiment: FACS on HEK293T-hMSLN-R3 cells

T6 sequence (Q13421 495-614): as above

Binder	EC50 [pM]	Maximum mean fluorescence intensity
B1	910	6490
B2	1300	6480
B3	140	6590
B4	40	7470
B5	480	6250
B6	140	6930
B7	350	7460
B8	1870	5150
B9	380	5900

Target: T7, human MSLN on OVCAR3 tumor cells (human, UniProt Q13421 296-598)
T7 construct: whole, on cells; also called human MSLN protein
Experiment: FACS, OVCAR3 cells

T7 sequence (Q13421 other isoform, or with tags, fused parts or gaps): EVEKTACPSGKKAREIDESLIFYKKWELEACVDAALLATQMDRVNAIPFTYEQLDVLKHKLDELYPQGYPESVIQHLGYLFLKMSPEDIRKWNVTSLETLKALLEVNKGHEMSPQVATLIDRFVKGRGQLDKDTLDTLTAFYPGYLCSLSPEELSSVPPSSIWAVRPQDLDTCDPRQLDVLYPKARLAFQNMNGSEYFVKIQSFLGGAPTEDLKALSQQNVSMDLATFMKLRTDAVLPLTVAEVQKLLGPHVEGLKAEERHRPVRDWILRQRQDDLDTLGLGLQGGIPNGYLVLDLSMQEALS

Binder	EC50 [pM]	Maximum_MFI [MFI]
B11	400	1820
B12	990	1820
B13	1830	2140
B14	1600	1830
B15	1210	2320
B16	1330	2150

Target: T8, human MSLN protein endogenously expressed on OVCAR3 tumor cells (human, UniProt Q13421 296-598)
T8 construct: whole, on cells; Endogenous target on OVCAR3 cells; kept apart from the recombinant full-length construct; also called mesothelin
Experiment: FACS on OVCAR3 cells

Binder	EC50 [pM]	Maximum mean fluorescence intensity
B1	870	26500
B2	1090	23600
B3	360	16600
B4	50	25700
B5	1080	23700
B6	370	29100
B7	220	25900
B8	~4000	24000
B9	870	21900
